Assay results from paper PMC3176292, “Mutations in Protein-Binding Hot-Spots on the Hub Protein Smad3 Differentially Affect Its Protein Interactions and Smad3-Regulated Gene Expression” (PLoS ONE, 2011).

T1: Ski Smad-binding domain (amino acids 2–56) on the 3xFlag-thioredoxin scaffold (UniProt P12755 2-56)
T1 construct: Ski, amino acids 2–56; cloned into the unique RsrII site of pCI-3xFLAG-Trx; also called Ski aa2–56; TrxSki; source: HEK-293, transfected, in lysate
T1 sequence (looked up): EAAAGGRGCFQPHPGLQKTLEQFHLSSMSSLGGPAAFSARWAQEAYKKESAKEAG

T2: SARA Smad-binding domain (amino acids 665–721) on the 3xFlag-thioredoxin scaffold (UniProt O95405 767-823)
T2 construct: SARA, amino acids 665–721; cloned into the unique RsrII site of pCI-3xFLAG-Trx; also called SARA aa665–721; TrxSARA; source: HEK-293, transfected, in lysate
T2 sequence (looked up): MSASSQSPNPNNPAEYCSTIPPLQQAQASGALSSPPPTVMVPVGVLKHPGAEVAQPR

B1: Renilla luciferase-Smad3 D408H (natural protein, UniProt P84022 1-425, looked up)
chain: MSSILPFTPPIVKRLLGWKKGEQNGQEEKWCEKAVKSLVKKLKKTGQLDELEKAITTQNVNTKCITIPRSLDGRLQVSHRKGLPHVIYCRLWRWPDLHSHHELRAMELCEFAFNMKKDEVCVNPYHYQRVETPVLPPVLVPRHTEIPAEFPPLDDYSHSIPENTNFPAGIEPQSNIPETPPPGYLSEDGETSDHQMNHSMDAGSPNLSPNPMSPAHNNLDLQPVTYCEPAFWCSISYYELNQRVGETFHASQPSMTVDGFTDPSNSERFCLGLLSNVNRNAAVELTRRHIGRGVRLYYIGGEVFAECLSDSAIFVQSPNCNQRYGWHPATVCKIPPGCNLKIFNNQEFAALLAQSVNQGFEAVYQLTRMCTIRMSFVKGWGAEYRRQTVTSTPCWIELHLNGPLQWLHKVLTQMGSPSIRCSSVS
notes: Smad3; source: HEK-293, transfected together with constitutively active Alk5, in lysate
B2: Renilla luciferase-Smad3 Y297A (natural protein, UniProt P84022 1-425, looked up)
chain: MSSILPFTPPIVKRLLGWKKGEQNGQEEKWCEKAVKSLVKKLKKTGQLDELEKAITTQNVNTKCITIPRSLDGRLQVSHRKGLPHVIYCRLWRWPDLHSHHELRAMELCEFAFNMKKDEVCVNPYHYQRVETPVLPPVLVPRHTEIPAEFPPLDDYSHSIPENTNFPAGIEPQSNIPETPPPGYLSEDGETSDHQMNHSMDAGSPNLSPNPMSPAHNNLDLQPVTYCEPAFWCSISYYELNQRVGETFHASQPSMTVDGFTDPSNSERFCLGLLSNVNRNAAVELTRRHIGRGVRLAYIGGEVFAECLSDSAIFVQSPNCNQRYGWHPATVCKIPPGCNLKIFNNQEFAALLAQSVNQGFEAVYQLTRMCTIRMSFVKGWGAEYRRQTVTSTPCWIELHLNGPLQWLDKVLTQMGSPSIRCSSVS
notes: as for B1

Assays:
Assay in all cases: co-IP; LUMIER: Renilla luciferase-Smad3 and Flag-tagged partner co-expressed with constitutively active Alk5 in HEK-293; Flag protein captured from cleared lysate (TNE: 10 mM Tris-HCl pH 7.8, 150 mM NaCl, 1 mM EDTA, 1% Igepal CA-630) on anti-Flag 96-well plates, 2 h at 4 °C; co-precipitated Renilla luciferase activity, TrxGA background subtracted, percent of wild-type Smad3
Details in all cases: partners not purified
[1] = molecular target: T3, Smurf2 Smad-binding domain (amino acids 252–330) on the Flag-thioredoxin scaffold (UniProt Q9HAU4 252-330)
T3 construct: Smurf2, amino acids 252–330; also called Smurf2 aa252–330; TrxSmurf2; source: HEK-293, transfected, in lysate
T3 sequence (Q9HAU4 252-330): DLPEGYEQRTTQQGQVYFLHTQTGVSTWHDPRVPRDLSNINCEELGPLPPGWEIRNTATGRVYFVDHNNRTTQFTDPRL

[2] = molecular target: T1, Ski Smad-binding domain (amino acids …)
[3] = molecular target: T2, SARA Smad-binding domain (amino acids …)

| Binder | percent binding relative to wild-type Smad3 [1] [%] | percent binding relative to wild-type Smad3 [2] [%] | percent binding relative to wild-type Smad3 [3] [%] |
| --- | --- | --- | --- |
| B1 | 23 | 3 | 125 |
| B2 | 119 | 1 | 8 |
